According to article PMC8387031, “Structures of Substrate Complexes of Foamy Viral Protease-Reverse Transcriptase”:

Columns and labels:
[1] = biological target: MFV PR-RT ΔRH (deletion variant of MFV PR-RT that lacked the RH domain) (marmoset foamy virus (MFV)); assay: crystal structure; MFV PR-RT ΔRH at 5 mg/ml with 13-bp dsDNA with a 2-nt 5' overhang (substrate 2) at a 1:1 molar ratio; hanging drop; 0.1 M DL-malic acid pH 7.0, 10% PEG 3350; space group C 2
MFV PR-RT full-length [2] = biological target: T1, MFV PR-RT full-length (marmoset foamy virus, UniProt D5JWV1 1-751); assay: GF/MALS; 2:1 protein:NA; 0.5 mM EDTA; single peak 123.3 kDa, one protein per hybrid; GF/MALS: 20 mM HEPES pH 7.0, 250 mM NaCl, 5% glycerol, 0.5 mM EDTA, 1 mM DTT; cryo-EM: 150 mM NaCl, 20 mM HEPES pH 7.0, 1 mM DTT; crystals: N1 Morpheus MES-imidazole pH 6.5, 18 C; N2 0.1 M DL-malic acid pH 7.0, 10% PEG 3350; settings: protein: recombinant; tags: 6xHis-SUMO (pET28 vector); 28 bp, 5' overhang 6 nt on RNA
MFV PR-RT full-length [3] = biological target: T1, MFV PR-RT full-length; assay: X-ray crystallography; monomer; 1:1 mix; GF/MALS: 20 mM HEPES pH 7.0, 250 mM NaCl, 5% glycerol, 0.5 mM EDTA, 1 mM DTT; cryo-EM: 150 mM NaCl, 20 mM HEPES pH 7.0, 1 mM DTT; crystals: N1 Morpheus MES-imidazole pH 6.5, 18 C; N2 0.1 M DL-malic acid pH 7.0, 10% PEG 3350; settings: protein: recombinant; tags: 6xHis-SUMO (pET28 vector); 15 bp; RNA 5' overhang 2 nt and 3' overhang 1 nt; recessed DNA 3' end
MFV PR-RT ΔRH = MFV PR-RT ΔRH (marmoset foamy virus, UniProt D5JWV1 1-588); assay: X-ray crystallography; asymmetric homodimer; 1:1 mix; GF/MALS: 20 mM HEPES pH 7.0, 250 mM NaCl, 5% glycerol, 0.5 mM EDTA, 1 mM DTT; cryo-EM: 150 mM NaCl, 20 mM HEPES pH 7.0, 1 mM DTT; crystals: N1 Morpheus MES-imidazole pH 6.5, 18 C; N2 0.1 M DL-malic acid pH 7.0, 10% PEG 3350; settings: protein: recombinant; tags: 6xHis-SUMO (pET28 vector); chain copies: 2; 13 bp, 5' overhang 2 nt on template
MFV PR-RT full-length [4] = biological target: T1, MFV PR-RT full-length; assay: cryo-EM (4.8 A); asymmetric dimer; EMD-12698; GF/MALS: 20 mM HEPES pH 7.0, 250 mM NaCl, 5% glycerol, 0.5 mM EDTA, 1 mM DTT; cryo-EM: 150 mM NaCl, 20 mM HEPES pH 7.0, 1 mM DTT; crystals: N1 Morpheus MES-imidazole pH 6.5, 18 C; N2 0.1 M DL-malic acid pH 7.0, 10% PEG 3350; settings: protein: recombinant; tags: 6xHis-SUMO (pET28 vector); 22 bp, 5' overhang 2 nt on template

## MFV PR-RT ΔRH (deletion variant of MFV PR-RT that lacked the RH domain) (domain or fragment)
[1]
  stoichiometry N: 2

B1: GF/MALS RNA/DNA hybrid (DNA:RNA)
RNA: GUGAGCGAACAGAGUGCGACACCUGAUUCCAUGA
DNA: TCATGGAATCAGGTGTCGCACTCTGTTC
MFV PR-RT full-length [2]
  binding result: binds

B2: substrate 1 PPT RNA/DNA hybrid (DNA:RNA)
RNA: UUCUUGUCCAGGAGAGGG
DNA: CCTCTCCTGGACAAG
MFV PR-RT full-length [3]
  binding result: binds

B3: substrate 2 dsDNA (dsDNA)
DNA 1: AACAGAGTGCGACAC
DNA 2: GTGTCGCACTCTG
MFV PR-RT ΔRH
  binding result: binds

B4: substrate 3 dsDNA (dsDNA)
DNA 1: AACAGAGTGCGACACCTGATTCCA
DNA 2: TGGAATCAGGTGTCGCACTCTG
MFV PR-RT full-length [4]
  binding result: binds
